Tests used:
Assay in all cases: Crosslinking/co-immunoprecipitation/mass spectrometry (TMT quantitative proteomics) to identify irisin receptors
Assay type in all cases: binding
[1] = biological target: T1, MLO-Y4 cell surface proteins (Mus musculus, UniProt Q6ZPE2); conditions: co-precipitated protein Sbf1 (MTMR5_MOUSE)
T1 construct: endogenous in cells; host or cells: MLO-Y4
Summary of the method: (§1)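 Mouse MLO-Y4 cells were switched to serum-free FreeStyle medium for 4 h, chilled, then exposed to 10 nM His-tagged irisin (or adipsin as control) for 20 min. Cells were crosslinked with 1.5 mM DTSSP (30 min, ice), and bound proteins were pulled down on Ni-NTA and eluted with 250 mM imidazole. Eluates were separated by SDS-PAGE, trypsin-digested in gel, TMT 6-plex labelled and quantified by MS3-based LC-MS/MS on an Orbitrap Fusion Lumos.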

[2] = biological target: T2, MLO-Y4 cell surface proteins (Mus musculus, UniProt Q62028); conditions: co-precipitated protein Pla2r1 (PLA2R_MOUSE)
T2 construct: endogenous in cells; host or cells: MLO-Y4
Summary of the method: as §1

[3] = biological target: T3, MLO-Y4 cell surface proteins (Mus musculus, UniProt Q9CXD6); conditions: co-precipitated protein Mcur1 (MCUR1_MOUSE)
T3 construct: endogenous in cells; host or cells: MLO-Y4
T3 sequence (Q9CXD6 1-340): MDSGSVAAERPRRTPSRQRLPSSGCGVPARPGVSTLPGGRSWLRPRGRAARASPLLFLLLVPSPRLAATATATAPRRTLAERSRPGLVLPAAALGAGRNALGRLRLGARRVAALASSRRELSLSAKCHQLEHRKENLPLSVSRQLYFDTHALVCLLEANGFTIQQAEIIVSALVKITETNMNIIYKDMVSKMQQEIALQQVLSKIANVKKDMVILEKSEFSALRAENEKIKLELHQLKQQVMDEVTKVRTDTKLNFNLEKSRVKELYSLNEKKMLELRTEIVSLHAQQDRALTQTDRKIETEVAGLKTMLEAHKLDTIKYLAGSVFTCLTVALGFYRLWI
Summary of the method: as §1

[4] = biological target: T4, MLO-Y4 cell surface proteins (Mus musculus, UniProt Q8JZN5); conditions: co-precipitated protein Acad9 (ACAD9_MOUSE)
T4 construct: endogenous in cells; host or cells: MLO-Y4
T4 sequence (Q8JZN5 42-625): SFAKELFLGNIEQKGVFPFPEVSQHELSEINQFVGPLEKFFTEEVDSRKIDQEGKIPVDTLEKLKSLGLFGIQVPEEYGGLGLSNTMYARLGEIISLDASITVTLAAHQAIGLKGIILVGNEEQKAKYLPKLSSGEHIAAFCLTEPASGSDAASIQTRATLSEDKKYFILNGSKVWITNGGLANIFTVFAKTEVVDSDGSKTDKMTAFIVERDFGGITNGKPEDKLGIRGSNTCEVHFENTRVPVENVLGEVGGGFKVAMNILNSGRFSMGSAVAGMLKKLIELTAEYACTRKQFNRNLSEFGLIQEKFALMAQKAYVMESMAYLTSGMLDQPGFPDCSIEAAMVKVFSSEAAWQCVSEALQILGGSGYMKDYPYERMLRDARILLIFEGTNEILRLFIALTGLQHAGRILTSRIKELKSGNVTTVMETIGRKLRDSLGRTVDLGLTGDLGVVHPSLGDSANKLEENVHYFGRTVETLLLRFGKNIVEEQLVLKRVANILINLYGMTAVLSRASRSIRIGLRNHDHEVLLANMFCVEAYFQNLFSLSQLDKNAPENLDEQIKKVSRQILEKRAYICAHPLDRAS
Summary of the method: as §1

T2 sequence (Q62028 27-1487): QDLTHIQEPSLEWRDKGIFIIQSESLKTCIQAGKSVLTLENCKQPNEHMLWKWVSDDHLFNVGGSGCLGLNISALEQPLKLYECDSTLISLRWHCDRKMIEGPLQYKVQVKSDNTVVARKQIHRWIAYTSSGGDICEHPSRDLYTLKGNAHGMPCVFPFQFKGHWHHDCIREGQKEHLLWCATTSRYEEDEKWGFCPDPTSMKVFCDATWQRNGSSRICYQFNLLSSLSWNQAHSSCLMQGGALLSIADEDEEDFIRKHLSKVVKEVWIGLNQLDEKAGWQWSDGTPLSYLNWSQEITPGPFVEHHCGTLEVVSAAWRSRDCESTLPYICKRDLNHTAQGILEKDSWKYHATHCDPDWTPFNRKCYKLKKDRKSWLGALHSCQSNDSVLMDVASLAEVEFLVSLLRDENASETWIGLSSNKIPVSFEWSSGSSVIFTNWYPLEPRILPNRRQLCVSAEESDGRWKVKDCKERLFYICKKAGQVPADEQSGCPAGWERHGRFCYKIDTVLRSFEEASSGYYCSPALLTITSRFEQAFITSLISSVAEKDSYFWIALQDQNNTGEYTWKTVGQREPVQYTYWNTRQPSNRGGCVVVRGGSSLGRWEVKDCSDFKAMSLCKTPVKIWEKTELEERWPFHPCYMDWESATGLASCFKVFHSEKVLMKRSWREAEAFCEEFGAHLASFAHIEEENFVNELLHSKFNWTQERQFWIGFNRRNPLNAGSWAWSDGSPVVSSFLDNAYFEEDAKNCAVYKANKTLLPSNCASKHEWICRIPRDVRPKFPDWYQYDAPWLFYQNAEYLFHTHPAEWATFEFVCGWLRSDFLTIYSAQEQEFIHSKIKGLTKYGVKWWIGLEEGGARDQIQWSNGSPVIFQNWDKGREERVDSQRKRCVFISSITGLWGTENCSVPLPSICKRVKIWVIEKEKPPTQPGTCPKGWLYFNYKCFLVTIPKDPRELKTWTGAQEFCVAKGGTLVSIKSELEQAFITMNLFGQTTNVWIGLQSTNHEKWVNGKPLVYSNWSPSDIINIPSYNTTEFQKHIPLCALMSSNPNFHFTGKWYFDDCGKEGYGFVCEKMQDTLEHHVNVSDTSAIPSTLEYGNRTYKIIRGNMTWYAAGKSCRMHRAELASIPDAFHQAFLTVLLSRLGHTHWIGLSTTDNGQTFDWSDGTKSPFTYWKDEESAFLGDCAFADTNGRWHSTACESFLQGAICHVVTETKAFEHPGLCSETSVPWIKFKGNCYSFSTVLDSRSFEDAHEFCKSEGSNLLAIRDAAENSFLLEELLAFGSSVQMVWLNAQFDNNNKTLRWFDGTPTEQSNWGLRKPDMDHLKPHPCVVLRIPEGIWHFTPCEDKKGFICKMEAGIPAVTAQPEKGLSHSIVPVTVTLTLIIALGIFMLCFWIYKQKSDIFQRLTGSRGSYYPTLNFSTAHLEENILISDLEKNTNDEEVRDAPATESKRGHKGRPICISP
T1 sequence (Q6ZPE2 whole entry): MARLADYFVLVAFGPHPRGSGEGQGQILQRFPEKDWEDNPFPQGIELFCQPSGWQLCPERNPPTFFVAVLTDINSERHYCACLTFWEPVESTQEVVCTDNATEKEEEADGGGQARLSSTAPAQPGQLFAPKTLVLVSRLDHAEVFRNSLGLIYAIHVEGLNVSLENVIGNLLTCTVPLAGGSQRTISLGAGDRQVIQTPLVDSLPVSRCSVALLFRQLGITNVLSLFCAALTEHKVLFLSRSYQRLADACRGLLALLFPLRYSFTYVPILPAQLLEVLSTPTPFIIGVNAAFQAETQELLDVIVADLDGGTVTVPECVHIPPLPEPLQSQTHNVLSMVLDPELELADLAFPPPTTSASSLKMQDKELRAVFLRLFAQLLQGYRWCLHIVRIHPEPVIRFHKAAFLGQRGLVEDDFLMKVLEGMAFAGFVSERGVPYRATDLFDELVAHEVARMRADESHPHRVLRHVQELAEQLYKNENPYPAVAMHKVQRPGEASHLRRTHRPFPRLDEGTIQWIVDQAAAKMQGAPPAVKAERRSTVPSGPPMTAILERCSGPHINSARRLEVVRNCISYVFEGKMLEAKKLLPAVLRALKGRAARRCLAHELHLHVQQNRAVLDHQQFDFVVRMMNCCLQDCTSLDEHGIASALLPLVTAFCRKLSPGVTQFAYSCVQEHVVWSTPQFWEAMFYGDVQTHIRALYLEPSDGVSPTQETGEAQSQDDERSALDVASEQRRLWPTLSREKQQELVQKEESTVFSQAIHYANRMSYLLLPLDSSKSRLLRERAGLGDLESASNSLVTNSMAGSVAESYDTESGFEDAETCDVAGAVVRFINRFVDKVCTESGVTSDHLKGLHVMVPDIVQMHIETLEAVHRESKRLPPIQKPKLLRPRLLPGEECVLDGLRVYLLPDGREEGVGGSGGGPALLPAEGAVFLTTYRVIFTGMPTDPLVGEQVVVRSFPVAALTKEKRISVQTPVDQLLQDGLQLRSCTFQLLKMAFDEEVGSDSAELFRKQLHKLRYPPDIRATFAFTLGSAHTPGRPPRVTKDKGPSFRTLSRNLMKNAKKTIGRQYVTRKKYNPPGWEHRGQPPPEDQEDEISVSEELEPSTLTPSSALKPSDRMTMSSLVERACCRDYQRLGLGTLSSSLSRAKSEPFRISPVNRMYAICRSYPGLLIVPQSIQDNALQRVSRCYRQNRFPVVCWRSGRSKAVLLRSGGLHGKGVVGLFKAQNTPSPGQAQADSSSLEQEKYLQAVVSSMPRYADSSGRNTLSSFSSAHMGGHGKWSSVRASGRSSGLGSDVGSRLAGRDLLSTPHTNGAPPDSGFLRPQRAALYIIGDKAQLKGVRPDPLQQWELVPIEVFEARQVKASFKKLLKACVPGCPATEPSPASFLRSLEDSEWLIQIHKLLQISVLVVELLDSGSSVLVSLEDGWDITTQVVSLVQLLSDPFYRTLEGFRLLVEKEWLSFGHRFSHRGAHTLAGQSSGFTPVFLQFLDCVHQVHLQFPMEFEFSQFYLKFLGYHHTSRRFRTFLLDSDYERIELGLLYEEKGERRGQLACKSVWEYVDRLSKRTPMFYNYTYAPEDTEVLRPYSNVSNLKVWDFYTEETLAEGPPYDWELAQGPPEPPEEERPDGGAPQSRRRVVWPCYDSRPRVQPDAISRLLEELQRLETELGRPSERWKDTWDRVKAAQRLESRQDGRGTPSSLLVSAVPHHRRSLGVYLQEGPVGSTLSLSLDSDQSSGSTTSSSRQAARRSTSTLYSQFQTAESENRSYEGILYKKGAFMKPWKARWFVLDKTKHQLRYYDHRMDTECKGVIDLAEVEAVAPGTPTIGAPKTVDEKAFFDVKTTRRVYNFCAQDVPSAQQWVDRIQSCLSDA

B1: irisin: secreted cleaved form of FNDC5; recombinant human/mouse irisin with C-terminal his tag produced in HEK293 cells (protein)
chain: DSPSAPVNVTVRHLKANSAVVSWDVLEDEVVIGFAISQQKKDVRMLRFIQEVNTTTRSCALWDLEEDTEYIVHVQAISIQGQSPASEPVLFKTPREAEKMASKNKDEVTMKE
modifications: left off: small tags and cut ends
notes: secreted cleaved form of FNDC5; recombinant human/mouse irisin with C-terminal his tag produced in HEK293 cells
For B1, which TMT signal-to-noise ratio [1] is on record?
Its TMT signal-to-noise ratio is 37.3228.

What about the “irisin/adipsin TMT signal-to-noise ratio” value [1] of the same molecule?
The value was 0.525.

And the TMT signal-to-noise ratio [2]?
The TMT signal-to-noise ratio was 142.778.

What about the “irisin/adipsin TMT signal-to-noise ratio” value [2] of the same molecule?
The value was 0.275.

And the TMT signal-to-noise ratio [3]?
The TMT signal-to-noise ratio was 951.207.

And the “irisin/adipsin TMT signal-to-noise ratio” value [3]?
Its value is 0.583.

And the TMT signal-to-noise ratio [4]?
Its TMT signal-to-noise ratio is 61.8219.

What about the “irisin/adipsin TMT signal-to-noise ratio” value [4] of the same molecule?
The value was 0.486.
